Experimental data from patent US20100022454A1 (Novo Nordisk, published 2010).
Numbering of substitutions follows the chain as printed. Names and notes keep the numbering of the source. Each block holds one binder with its values, some of them ahead of it.

Legend:
[1] = biological target: prolactin receptor (PRLR) on T47D cells; test: cell-based or functional assay
[2] = biological target: T1, hPRLR on stably transfected BaF/3 cells (human, UniProt P16471 25-622); test: cell-based or functional assay
T1 sequence (looked up): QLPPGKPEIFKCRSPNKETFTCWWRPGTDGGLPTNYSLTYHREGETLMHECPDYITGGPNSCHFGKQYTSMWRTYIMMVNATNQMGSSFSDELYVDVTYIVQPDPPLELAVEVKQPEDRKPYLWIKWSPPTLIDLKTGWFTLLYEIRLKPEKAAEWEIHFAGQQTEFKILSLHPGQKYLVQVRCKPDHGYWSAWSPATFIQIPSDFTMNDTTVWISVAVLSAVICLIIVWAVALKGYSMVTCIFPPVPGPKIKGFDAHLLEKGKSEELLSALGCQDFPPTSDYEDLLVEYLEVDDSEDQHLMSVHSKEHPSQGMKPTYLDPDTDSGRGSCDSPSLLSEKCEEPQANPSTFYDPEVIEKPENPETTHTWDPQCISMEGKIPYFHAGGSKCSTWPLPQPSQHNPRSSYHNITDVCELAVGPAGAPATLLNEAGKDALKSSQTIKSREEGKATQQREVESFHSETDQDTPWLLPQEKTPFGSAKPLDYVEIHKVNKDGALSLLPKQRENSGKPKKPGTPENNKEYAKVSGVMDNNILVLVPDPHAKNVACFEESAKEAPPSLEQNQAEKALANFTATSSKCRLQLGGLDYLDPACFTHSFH

- Apparent IC50 (nM) at 20 nM PRL; inhibition of PRL induced STAT3 phosphorylation, phospho-STAT3 ELISA on T47D cells [1]: 69 nM
B1: PRL G129R (ligand)
chain: LPICPGGAARCQVTLRDLFDRAVVLSHYIHNLSSEMFSEFDKRYTHGRGFITKAINSCHTSSLATPEDKEQAQQMNQKDFLSLIVSILRSWNEPLYHLVTEVRGMQEAPEAILSKAVEIEEQTKRLLERMELIVSQVHPETKENEIYPVWSGLPSLQMADEESRLSAYYNLLHCLRRDSHKIDNYLKLLKCRIIHNNNC

- EC50 (nM) of PRL in the presence of 1 µM PRL S61A G129R, BaF3 proliferation assay (AlamarBlue), n = 9 [2]: 40 nM
- EC50 (nM), BaF3 proliferation assay (AlamarBlue), n = 31 [2]: 0.15 nM
B2: human prolactin (PRL), wildtype (ligand)
chain: B1 chain with R129G

- Apparent IC50 (nM) at 20 nM PRL; inhibition of PRL induced STAT3 phosphorylation, phospho-STAT3 ELISA on T47D cells [1]: 18 nM
B3: PRL S61A G129R (ligand)
chain: B1 chain with S61A
